Test [1] concerns the target DENV2 sE FGA02 A259C, disulfide-linked dimer (Dengue virus serotype 2, strain FGA02). Nature of the test: SEC-MALS; sE alone, ~150 ug on Superdex 200 10/300 GL, Tris 50 mM, NaCl 500 mM (pH 8.0), 0.4 ml min^−1. On the technique in general: Size exclusion chromatography separates by hydrodynamic size, large species first.
For test [2], the target named is DENV2 sE FGA02 L107C/A313C, disulfide-linked dimer (Dengue virus serotype 2, strain FGA02). Nature of the test: SEC.

For two substances, stoichiometry N results are on record in publication PMC5457521.

By stoichiometry N is commonly meant the number of molecules, sites or subunits per partner or assembly.

The substance “DENV2 sE FGA02 A259C, disulfide-linked dimer (domain or fragment)” returned a stoichiometry N in test [1] of 2.

With “DENV2 sE FGA02 L107C/A313C, disulfide-linked dimer (domain or fragment)”, in test [2], the stoichiometry N is 2.
